The results in this text go back to PMC7057950 (2020).

One may read the Kd as the equilibrium constant for the complex coming apart.

This data set concerns the molecule itself.

B1: hHsp90β (protein)
chain: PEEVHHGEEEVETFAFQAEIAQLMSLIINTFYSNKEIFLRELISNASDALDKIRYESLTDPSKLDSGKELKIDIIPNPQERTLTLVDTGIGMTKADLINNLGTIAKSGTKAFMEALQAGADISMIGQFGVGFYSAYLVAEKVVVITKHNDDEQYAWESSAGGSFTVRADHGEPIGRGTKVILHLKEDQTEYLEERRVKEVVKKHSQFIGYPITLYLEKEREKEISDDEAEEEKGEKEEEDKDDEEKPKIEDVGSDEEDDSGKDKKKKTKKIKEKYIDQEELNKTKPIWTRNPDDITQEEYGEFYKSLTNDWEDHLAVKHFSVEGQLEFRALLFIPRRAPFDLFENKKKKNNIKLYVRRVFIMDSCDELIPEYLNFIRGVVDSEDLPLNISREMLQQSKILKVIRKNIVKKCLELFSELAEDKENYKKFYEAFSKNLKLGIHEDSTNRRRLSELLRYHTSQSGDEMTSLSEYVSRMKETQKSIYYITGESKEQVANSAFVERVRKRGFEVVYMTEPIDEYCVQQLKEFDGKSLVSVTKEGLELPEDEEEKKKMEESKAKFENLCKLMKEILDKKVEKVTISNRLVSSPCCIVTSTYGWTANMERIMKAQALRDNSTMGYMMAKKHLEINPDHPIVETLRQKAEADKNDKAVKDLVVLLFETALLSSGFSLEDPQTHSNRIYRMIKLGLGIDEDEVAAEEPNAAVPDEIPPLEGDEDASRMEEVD
For B1, the Kd was approximately 9.5 nM.
